Data on 14 molecules can be found in patent publication US20240043507A1 (RQ BIOTECHNOLOGY, published 2024).

To fix the notation:
B1: antibody 159, full-length IgG (antibody, V domains shown)
VH: EVQLVESGGGVVQPGRSLRLSCAASGFTFSSYGMHWVRQAPGKGLEWVALISYDGGNRYYADSVKGRFTISRDNSKNTLYLQMNRLRAEDTAMYYCAKDRDDGWDWYYFMDVWGKGTTVTVSS
VL: DIQLTQSPGTLSLSPGERATLSCRASQSISGNYLAWYQHKPGQAPRLLIYGASTRATGIPDRFSGSGSGTDFTLTISRLEPEDFAVYYCQQYGSSYTFGQGTKVEIK
B2: antibody 316, full-length IgG (antibody, V domains shown)
VH: not shown
VL: QAVLTQPPSASGSPGQSVTISCTGTSSDVGGYNYVSWYQQHPGKAPKLMIYEVSKRPSGVPDRFSGSKSGNTASLTVSGLQAEDEADYYCSSYAGSNHWVFGGGTKLTVL
notes: also called mAb 316; 316 IgG
B3: antibody 40, full-length IgG (antibody, V domains shown)
VH: QVQLVESGGGLVQPGGSLRLSCAVSGFTVSRNYMSWVRQAPGKGLEWVSLIYSGGSTFYADSVKGRFTISRDNSKNTLYLQMNSLRAEDTAVYYCARDLFHRSGYHDYWGQGTLVTVSS
VL: not shown
notes: also called mAb 40; 40 IgG
B4: antibody 88, full-length IgG (antibody, V domains shown)
VH: QLQLQESGPGLVKPSQTLSLTCTVSGGSISSGSYNWTWIRQPAGKGLEWIGRIYNSGSTNYNPSLKSRVTISVDTSKNQLSLKVRSVTAADTAVYYCARHCSGGTCYPKYYYGMDVWGQGTTVTVSS
VL: QSALTQPPSVSEAPRQRVTISCSGSSSNIGNNAVNWYQQFPGKAPKLLIYYDDLLPSGVSDRFSGSKSGTSASLAISGVQSEDEADYYCAAWDDSLNVVVFGGGTKLTVL
notes: also called mAb 88; 88 IgG
B5: antibody 158, full-length IgG (antibody, V domains shown)
VH: EVQLLESGGDLIQPGGSLRLSCAASGVTVSSNYMSWVRQAPGKGLEWVSIIYPGGSTFYADSVKGRFTISRDNSKNTLYLQMHSLRAEDTAVYYCARDLGSGDMDVWGKGTTVTVSS
VL: DIVMTQSPSFLSASVGDRVTITCRASQGISSYLAWYQQKPGKAPKLLIQAASTLQSGVPSRFSGSGSGTEFTLTISSLQPEDFATYYCQQLNSYRYTFGQGTKVEIK
notes: also called mAb 158; 158 IgG
B6: antibody 384, full-length IgG (antibody, V domains shown)
VH: EVQLVESGGGLVKPGESLRLSCAASGFTFSDYYMTWIRQAPGKGLEWVSYIRSSGHTIYYADSVKGRFTISRDNAKNSLYLQMNSLRVEDTAVYYCARGGVLRFLEWPLNAFDIWGQGTMVTVSS
VL: DIQLTQSPSSLSASVGDRVTITCRASQGISNYLAWYQQKPGKVPKLLIYAASTLQSGVPSRFSGSGSGTDFTLTISSLQPEDVATYYCQKYNNALGTFGQGTKVEIK
B7: antibody 150, full-length IgG (antibody, V domains shown)
VH: QVQLVESGGGLIQPGGSLRLSCAASGVTVSSNYMSWVRQAPGKGLEWVSIIYSGGTTYYADSVKGRFTISRDSSMNTLYLQMNSLRAEDTAVYYCARDLMVYGIDVWGQGTTVTVSS
VL: EIVMTQSPSSLSASVGDRVTITCRASQGISSYLAWYQQKPGKAPKLLIYAASTLQSGVPSRFSGSGSGTDFTLTISSLQPEDFATYYCQQLDSYPPGYTFGQGTKVDIK
B8: mAb 318 (antibody, V domains shown)
VH: QVQLVQSGPEVKKPGTSVKVSCKASGFTLTSSAMQWVRQARGQRLEWIGWIVVGSGNTNYAQKFQERVTITRDMSTSTAYMELSSLRSEDTAVYYCAAGRGYNSDFDYWGQGTLVTVSS
VL: AIRMTQSPGTLSLSPGERATLSCRASQSVSSSYLAWYQQRPGQAPRLLIYGTSSRATGIPDRFSGSGSGTDFTLTISRLEPEDFAVYYCQQYGYSVYTFGQGTKVDIK
B9: mAb 175 (antibody, V domains shown)
VH: EVQLVESGGGLIQPGGSLRLSCAASGLTVSRNYMSWVRQAPGKGLEWVSLIYSGGSTYYADSVKGRFTISRDNSKNTLYLQMNSLRAEDTAVYYCARDLRGEVWGQGTMVTVSS
VL: not shown
B10: mAb 159 (antibody, V domains shown)
VH: B1 VH
VL: B1 VL
B11: mAb 222 (antibody, V domains shown)
VH: EVQLVESGGGLIQPGGSLRLSCAASGLTVSSNYMSWVRQAPGKGLEWVSVIYSGGSTFYADSVKGRFTISRDNSKNTLYLQMNSLGAEDTAVYYCARGEGSPGNWFDPWGQGTLVTVSS
VL: DVVMTQSPGTLSLSPGERATLSCRASQSVPSSYLAWYQQKPGQAPRLLIYGASTRATGIPDRFSGSGSGTDFTLTISRLEPEDFAVYYCQHYDTSPRFGGGTKVDIK
B12: mAb 269 (antibody, V domains shown)
VH: QVQLVESGGGLIQPGGSLRLSCAASGLTVNRNYMSWIRQAPGKGLEWVSVIYSGGSTFYADSVKGRFTISRDNSKNTLSLQMNSLRAEDTAIYYCARDFYEGSFDIWGQGTMVTVSS
VL: AIQLTQSPSFLSASIGDRVTITCRASQGISSYLAWYQQKPGKAPKLLIYAASTLQSGVPSRFSGSGSGTEFTLTISSLQPEDFASYYCQQLNSYPAPVFGPGTKVDIK
B13: mAb 165 (antibody, V domains shown)
VH: QVQLVQSGPEVKKPGTSVKVSCKASGFTFTSSAVQWVRQARGQRLEWIGWIVVGSGNTNYAQKFQESVTITRDMSTSTAYMELSSLRSEDTAVYYCAAPHCIGGSCHDAFDIWGQGTMVTVSS
VL: DIVMTQSPGTLSLSPGERATLSCRASQSVRSSYLAWYQQKPGQAPRLLIYGASRRGTGIPDRFSGSGSGTDFTLTISRLEPEDFAVYYCQQYGSSPWTFGQGTKVEIK
B14: mAb 88 (antibody, V domains shown)
VH: B4 VH
VL: B4 VL

Usually Kd stands for a measure of binding affinity in units of concentration. For orientation: EC50 (read off the curve) means the midpoint of the concentration-response curve. Low readings indicate a more potent agent, high ones a less potent agent.

One test deals with T1, SARS-CoV-2 spike protein on authentic virus, strain SARS-CoV-2/human/AUS/VIC01/2020 (Victoria) (SARS-CoV-2, UniProt P0DTC2 14-1273). Briefly: cell-based or functional assay.
Regarding B1, the “IC50 (ug/ml), FRNT” value worked out at 0.011 µg/mL.

As for B2, the “IC50 (ug/ml), FRNT” value is 0.018 µg/mL.

On to B3, for which the “IC50 (ug/ml), FRNT” value turned out to be 0.026 µg/mL.

B4: the “IC50 (ug/ml), FRNT” value turned out to be 0.033 µg/mL.

For the molecule B5, the “IC50 (ug/ml), FRNT” value amounted to 0.031 µg/mL.

The target of another test is SARS-CoV-2 spike protein on authentic virus, strain B.1.1.7 (SARS-CoV-2, UniProt P0DTC2 14-1273). As to the kind of experiment: cell-based or functional assay.
In the case of B1, the “B.1.1.7/Victoria Ratio of IC50” value is 5.71 and the “IC50 (ug/ml), FRNT” value came out at 0.061 µg/mL.

For B2, the “IC50 (ug/ml), FRNT” value was 0.024 µg/mL.

Consider B3, for which the “IC50 (ug/ml), FRNT” value was determined as 0.035 µg/mL.

Consider B4, for which the “IC50 (ug/ml), FRNT” value stood at 0.058 µg/mL.

Regarding B6, the “IC50 (ug/ml), FRNT” value is 0.005 µg/mL.

For B5, the “IC50 (ug/ml), FRNT” value worked out at 0.254 µg/mL.

In the case of B7, the “B.1.1.7/Victoria Ratio of IC50” value was determined as 12 and the “IC50 (ug/ml), FRNT” value was found to be 0.139 µg/mL.

The next test addresses T1, SARS-CoV-2 spike protein on authentic …. Briefly: cell-based or functional assay. The source holds these as a separate data set.
As to B1, the “Neutralisation IC50” value came to 0.08 nM.

Turning to B2, the “Neutralisation IC50” value was 0.08 nM.

Turning to B3, the “Neutralisation IC50” value was found to be 0.16 nM.

For B4, the “Neutralisation IC50” value came out at 0.07 nM.

As for B5, the “Neutralisation IC50” value is 0.13 nM.

The target is the same in the next test. As to the kind of experiment: calculated from whole-virus ELISA binding and FRNT50.
For B1, the “% Occupancy” value was 30%.

As for B2, the “% Occupancy” value was 35.4%.

For the molecule B3, the “% Occupancy” value is 33.3%.

Turning to B4, the “% Occupancy” value is 21.9%.

Consider B5, for which the “% Occupancy” value is 20.5%.

A further test has the same target. As to the kind of experiment: whole-virus capture ELISA, half-maximal binding. For orientation: In an ELISA, binding on a coated surface is turned into a signal by an enzyme label.
Molecule B1 yielded a Kd of 0.19 nM.

Molecule B2 displayed a Kd of 0.13 nM.

With B3, the Kd amounted to 0.33 nM.

On to B4, for which the Kd came to 0.25 nM.

In the case of B5, the Kd was 0.5 nM.

The next test deals with T2, SARS-CoV-2 spike on whole virus (SARS-CoV-2/human/AUS/VIC01/2020, Victoria) (SARS-CoV-2, UniProt P0DTC2 14-1273). As to the kind of experiment: cell-based or functional assay.
For the molecule B8, the “Neutralisation IC50 (FRNT)” value is 0.015 µg/mL.

B9: the “Neutralisation IC50 (FRNT)” value was determined as 0.033 µg/mL.

In the case of B10, the “Neutralisation IC50 (FRNT)” value turned out to be 0.005 µg/mL.

Take B11: the “Neutralisation IC50 (FRNT)” value is 0.016 µg/mL.

As to B12, the “Neutralisation IC50 (FRNT)” value was 0.036 µg/mL.

Consider B13, for which the “Neutralisation IC50 (FRNT)” value was found to be 0.021 µg/mL.

The next test deals with T2, SARS-CoV-2 spike on whole virus ….
Experiment: not given
As for B14, the “EC50 (read off the curve)” value was about 0.2 nM.
